Test results: publication PMC2714705 (Structure (London, England : 1993), 2009)
Values joined by “and” are separate entries in the source; they are usually repeats but may differ in a detail not shown here. Identical values can stand only once.

T1: P22 assembly-naïve portal, full length His-tagged gp1 (bacteriophage P22), P26744
T1 chain: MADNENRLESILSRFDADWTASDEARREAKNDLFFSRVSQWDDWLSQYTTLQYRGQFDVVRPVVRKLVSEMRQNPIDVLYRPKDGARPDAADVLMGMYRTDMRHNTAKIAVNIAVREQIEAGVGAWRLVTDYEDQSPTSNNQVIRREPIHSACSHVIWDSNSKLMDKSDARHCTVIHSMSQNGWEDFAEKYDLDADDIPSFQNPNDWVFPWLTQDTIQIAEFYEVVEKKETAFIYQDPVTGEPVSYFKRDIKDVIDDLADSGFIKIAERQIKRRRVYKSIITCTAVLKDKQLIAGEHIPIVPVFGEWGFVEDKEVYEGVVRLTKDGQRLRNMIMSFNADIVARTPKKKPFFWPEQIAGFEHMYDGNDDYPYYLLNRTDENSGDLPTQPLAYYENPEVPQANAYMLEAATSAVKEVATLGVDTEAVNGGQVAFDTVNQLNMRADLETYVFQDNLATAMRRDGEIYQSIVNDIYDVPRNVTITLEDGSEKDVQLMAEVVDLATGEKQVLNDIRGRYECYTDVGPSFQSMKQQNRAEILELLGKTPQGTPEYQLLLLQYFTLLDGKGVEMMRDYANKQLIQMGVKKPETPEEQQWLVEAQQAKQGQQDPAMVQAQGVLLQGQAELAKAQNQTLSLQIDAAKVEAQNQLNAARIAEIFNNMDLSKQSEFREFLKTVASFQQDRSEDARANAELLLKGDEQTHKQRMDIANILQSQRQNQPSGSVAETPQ

T2: P22 portal protein gp1 in the tail machine purified from virions (bacteriophage P22, UniProt P26744 1-725)
T2 sequence (looked up): T1 chain

B1: P22 assembly-naïve portal, full length His-tagged gp1, P26744 1-725 (natural protein)
chain: T1 chain
B2: P22 gp26 tail needle (natural protein, bacteriophage P22)
chain: MADPSLNNPVVIQATRLDASILPRNVFSKSYLLYVIAQGTDVGAIAGKANEAGQGAYDAQVKNDEQDVELADHEARIKQLRIDVDDHESRITANTKAITALNVRVTTAEGEIASLQTNVSALDGRVTTAENNISALQADYVSKTATTSQSLASPLNVTTSYSVGGKKVLGARQTGWTAATGTANKGVFDADLTFAVSDTYTQSEIQAIANALITERRRTKALEDALRAHGLID
B3: P22 gp4 (natural protein, bacteriophage P22, UniProt P26746 1-166, looked up)
chain: MQIKTKGDLVRAALRKLGVASDATLTDVEPQSMQDAVDDLEAMMAEWYQDGKGIITGYVFSDDENPPAEGDDHGLRSSAVSAVFHNLACRIAPDYALEATAKIIATAKYGKELLYKQTAISRAKRAPYPSRMPTGSGNSFANLNEWHYFPGEQNADSTTPHDEGNG

Legend:
Test in all cases: cryo-EM structure
[1] = target: T1, P22 assembly-naïve portal, full length …; conditions: remark: other sources report otherwise
cryo-EM structure = target: the molecule itself
P22 gp9 tailspike = P22 gp9 tailspike (bacteriophage P22, UniProt P12528 1-667)
[2] = target: T2, P22 portal protein gp1 in the tail …

Row | Binder | stoichiometry N [1] | binding result (cryo-EM structure) | binding result (P22 gp9 tailspike) | binding result [2]
1 | B1 | 11 and 12 |  |  | 
2 | B2 |  | binds |  | 
3 | B3 |  | binds | binds | binds
